In a protein production outcome set (Wang et al. 2014) one finds protein production data, which are given here for seven sequences.

The data set in a line: label from the status in PepcDB records.
Take “MDSDADGGETVSNFSENSTDFEETEEYIVERILDRRHYMGQLQYLVKWLDYSDEDNTWESAADLDCHSLIDSIESQKSLKRGQELNNQYETKAKRLKIDP”: the protein production entry was “failed”.
For “MDSQSENGSGAGNRTSIERRGDRELVVTRTFDAPRAMVYRAWSEPELFRRWWMPKSATGVTLVSCDMDVRTGGKYRLEFSTGGPQTMAFYGKYLDVVPNERIVWTNDEGEADAGEKGAITTVTFEDHGSQTLLRFHEVYPTAEALEEALQGSAAALPEQFDQLGEVLSGSGGKQ” the value was “failed”.
“MDTAASPLTYRDATDADVDALVALIESAYRGDASRAGWTTEADILQGQRTDPQGVLEVVKAPDSRLLTVERDGRIVACCQLEHRGAHAYFGMFAVSPALQGAGLGKAIIAEAERQARTTWGVTEMHMTVISVRDDLIAWYERRGYRRTGETTPFPYGDERFGIPQRADLRFELLVKPLV”: the protein production entry is on record as “failed”.
As for “MDTAVVYYVLATALVLIGLAGVILPALPGLPLVFAGLLVAAWADNFTHIGWVTLVVLGLITALSYLVDFLATLYGAQRVGASKMALWGSVIGGIAGIFFMPIGLFIGPFAGAWLGEYYQTRKSGQATKVGIGTWVGIMLGTATKLALGLCMLGAFAIGWFF”, the protein production result was “failed”.
For “MDTMSQILKLLEKTDSIEINEFRMDVDELELTIMPTLQNVVQKVVEKQIEAKKEFESQIEFKYPVKDYAGKVNEVKLGGKNRKTVKLGGQTSLYRFEEPQPNAPTVTFDVFDIPMNGLPRPIKENFEDVMHSPGEWAQKAVKEFGADMITLHLIGTDPKVKDKSLKDAAKDLEEVLQAVKVPLVIGGSGNPKKDPLVLEMAAEVADGERCLLASANLDLDYQKIAQAAVKHDHAVLSWAISDINMQKVLNKALMKEGLTANDIVMDPTTCALGYGIEFSIDVMTRTRLSALKGDEILQMPMSSGTTNAWGSREAWMKKDEWGPTKYRGPIWEVVTGLTMMLCGVDIFMMLHPLSVKTLKEIGTTLTYEYKSKESQDISDWINKF”, the protein production result is given as “not failed”.
In the case of “MDTPSRRSFLLAGGSFAIGVGAGLGIAHRDDVLPSRVVWAFETTGRIVSSPTVGDGTVYVGSDDSTVHSVSTSDGTRRTTARLHTKAGVFSSPALGADGGLYVGSTDTAIYGLFSSPGARDEWRFETTDWVTASPAVADGTVYVGSTDGTMYALNAETGAEQWRFETGDGIVSSPAVVDGTVYVGSTDGTVYALDADSGTDRWQFDTEGRVYSSPTVADGTVYVGSYDANIYAIDTTDGVEQWQFETGDSIWSSPTVLEETLWIGSKDAALYAVATEDGSEQWRFPTGGEVNSSPTVAGETVYVGSDDANLYAVAASDGSERWTFETGGAVQSSPTVADGTVYVGSGDSTLYALDADETGSSEGSRAELRTLGYFAE”, the protein production entry was “failed”.
The value for “MDTRKNVSGAERKIWSLIRDCSGKLEGVTETSVLEVLLIVSRVLGIRKEDLFLKDLGVSPTEEKRILELVEKRASGYPLHYILGEKEFMGLSFLVEEGVFVPRPETEELVELALELIRKYGIKTVADIGTGSGAIGVSVAKFSDAIVFATDVSSKAVEIARKNAERHGVSDRFFVRKGEFLEPFKEKFASIEMILSNPPYVKSSAHLPKDVLFEPPEALFGGEDGLDFYREFFGRYDTSGKIVLMEIGEDQVEELKKIVSDTVFLKDSAGKYRFLLLNRRSS” was “not failed”.
